# Measured values from the supplement of paper PMC7125110.
# ± gives the standard error. For part of these data: Variants at the floor of the assay were thinned out.
# B1: glmS ribozyme (parent)
# chain: AUAAAAGCGCCAGAACUACAGAAAUGUAGUUGACGAGGAGGAGGUUUAUCGAAUUUUCGGCGGAUGCCUCCAAA
# Tests used:
# Settings in all cases: with glucosamine-6-phosphate
# glucosamine-6-phosphate [1] = variants of: B1; test: kcat; higher = faster cleavage; RNA array
# Method in brief: (§1)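 Barcoded glmS ribozyme variants on sequenced MiSeq chips were transcribed in situ by E. coli RNA polymerase and tracked through a hybridised Cy3 probe at 37 °C. Glucosamine-6-phosphate (40 μM to 10 mM) in HEPES/KCl/Mg(OAc)2 buffer was flowed in, and tiles were imaged over ~14 h. Signals were normalised to baseline and to non-cleaving reference variants; per-tile medians were fit to one- or two-exponential decays to give kobs. kcat and KM came from weighted Michaelis–Menten fits across concentrations.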
# glucosamine-6-phosphate [2] = variants of: B1; test: KM; higher = weaker cofactor use; RNA array
# Method in brief: as §1
# glucosamine-6-phosphate [3] = variants of: B1; test: self-cleavage kobs at 640 uM GlcN6P; higher = faster cleavage; RNA array
# Method in brief: as §1
# glucosamine-6-phosphate [4] = variants of: B1; test: self-cleavage kobs at 2500 uM GlcN6P; higher = faster cleavage; RNA array
# Method in brief: as §1
# glucosamine-6-phosphate [5] = variants of: B1; test: self-cleavage kobs at 10000 uM GlcN6P; higher = faster cleavage; RNA array
# Method in brief: as §1
# glucosamine-6-phosphate [6] = variants of: B1; test: self-cleavage kobs at 160 uM GlcN6P; higher = faster cleavage; RNA array
# Method in brief: as §1
# glucosamine-6-phosphate [7] = variants of: B1; test: self-cleavage kobs at 40 uM GlcN6P; higher = faster cleavage; RNA array
# Method in brief: as §1
Variant,kcat (glucosamine-6-phosphate [1]) [s⁻¹],KM (glucosamine-6-phosphate [2]) [µM],self-cleavage kobs at 640 uM GlcN6P (glucosamine-6-phosphate [3]) [s⁻¹],self-cleavage kobs at 2500 uM GlcN6P (glucosamine-6-phosphate [4]) [s⁻¹],self-cleavage kobs at 10000 uM GlcN6P (glucosamine-6-phosphate [5]) [s⁻¹],self-cleavage kobs at 160 uM GlcN6P (glucosamine-6-phosphate [6]) [s⁻¹],self-cleavage kobs at 40 uM GlcN6P (glucosamine-6-phosphate [7]) [s⁻¹]
A12G A39C,0.000267 ± 1.7e-05,2130 ± 300,6.42e-05 ± 1.1e-05,0.000144 ± 1.2e-05,0.00022 ± 2.2e-05,–,–
A12U C68G,0.000191 ± 2.7e-05,624 ± 230,8.22e-05 ± 7.3e-06,0.00016 ± 1.2e-05,0.000186 ± 1.6e-05,5.38e-05 ± 6.4e-06,–
A12U A33C,0.00204 ± 0.00049,7810 ± 2600,0.000178 ± 3.4e-05,0.000501 ± 9.3e-05,0.00113 ± 0.00019,2.87e-05 ± 1.3e-05,–
A12U A15C,0.00683 ± 0.003,–,0.0109 ± 0.0048,0.00385 ± 0.0017,0.0117 ± 0.0029,–,0.000955 ± 0.00021
A12U U45A A53U,0.125 ± 0.042,1100 ± 390,–,–,–,–,0.00437 ± 0.0009
A12C C67G,0.00173 ± 0.00067,–,0.000444 ± 5.8e-05,0.00106 ± 0.00012,0.00265 ± 0.00032,0.000199 ± 2.4e-05,6.89e-05 ± 6e-06
G13A A52G,6.74e-05 ± 2.2e-06,1040 ± 140,–,4.85e-05 ± 1.2e-05,6.07e-05 ± 1.1e-05,–,–
C11U U55A U56G,0.000956 ± 0.00038,–,0.000289 ± 4.5e-05,0.000451 ± 0.00012,0.00113 ± 0.00024,–,4.23e-05 ± 1.9e-05
A12U G29A A52U,0.000494 ± 0.00016,–,4.42e-05 ± 1.6e-05,0.00021 ± 6.6e-05,0.000309 ± 7.1e-05,–,–
G13A A15U,0.00015 ± 1.5e-05,3530 ± 1100,–,6.03e-05 ± 2.6e-05,0.000111 ± 1.5e-05,–,–
G13A A15G,0.000875 ± 0.00018,1840 ± 670,0.000327 ± 5.6e-05,0.000431 ± 7.3e-05,0.000784 ± 0.00011,6.23e-05 ± 1.3e-05,–
A12C G29A,0.00648 ± 0.0024,–,0.00107 ± 0.00022,0.00331 ± 0.00067,0.00557 ± 0.00097,0.000322 ± 0.00011,0.000188 ± 3.3e-05
A12C G29C,0.00327 ± 0.00068,2770 ± 820,0.000508 ± 5.3e-05,0.00139 ± 0.00023,0.00271 ± 0.00022,0.000193 ± 2.7e-05,6.03e-05 ± 6.2e-06
A12G U65A,0.0002 ± 5.7e-06,3880 ± 230,2.72e-05 ± 6.7e-06,7.94e-05 ± 8.3e-06,0.000143 ± 1.2e-05,–,–
A12C U30C C71U,0.00195 ± 0.00038,3540 ± 1200,0.000258 ± 8.1e-05,0.000922 ± 0.00025,0.00141 ± 0.00029,–,3.06e-05 ± 1.5e-05
G13A A39G C61G C70A,< 1e-05,–,–,–,–,–,–

Variant,kcat (glucosamine-6-phosphate [1]) [s⁻¹],KM (glucosamine-6-phosphate [2]) [µM],self-cleavage kobs at 640 uM GlcN6P (glucosamine-6-phosphate [3]) [s⁻¹],self-cleavage kobs at 2500 uM GlcN6P (glucosamine-6-phosphate [4]) [s⁻¹],self-cleavage kobs at 10000 uM GlcN6P (glucosamine-6-phosphate [5]) [s⁻¹],self-cleavage kobs at 160 uM GlcN6P (glucosamine-6-phosphate [6]) [s⁻¹],self-cleavage kobs at 40 uM GlcN6P (glucosamine-6-phosphate [7]) [s⁻¹]
A12U U47C,0.0109 ± 0.0038,1790 ± 840,0.00299 ± 0.00033,0.0111 ± 0.0021,0.00873 ± 0.0011,0.000599 ± 0.0001,0.00032 ± 3.3e-05
A12U U47A,0.063 ± 0.02,1490 ± 570,0.0249 ± 0.0068,0.0403 ± 0.011,0.0554 ± 0.01,0.0041 ± 0.00089,0.00189 ± 0.00018
G13A G32C,0.00056 ± 0.00021,–,6.56e-05 ± 8.7e-06,0.000136 ± 1.8e-05,0.000388 ± 5.3e-05,–,–
A12G A33U,1.86e-05 ± 6.4e-06,–,–,–,< 1e-05,–,< 1e-05
A12U G51A,1.05e-05 ± 2.6e-06,–,–,–,–,–,–
A12G G29C,0.000167 ± 5.4e-05,–,3.94e-05 ± 1.1e-05,4.98e-05 ± 1.3e-05,0.000123 ± 1.4e-05,–,–
A12C G37C,8.54e-05 ± 2.4e-06,6970 ± 420,–,2.27e-05 ± 8.6e-06,5.03e-05 ± 7.5e-06,–,–
C11U U65A C71U,0.000194 ± 1.4e-05,3610 ± 470,2.73e-05 ± 1.3e-05,8.15e-05 ± 1.6e-05,0.000139 ± 4.3e-05,–,–
A12G A52G,3.09e-05 ± 1e-05,–,–,5.02e-05 ± 1.5e-05,2.49e-05 ± 8.8e-06,–,–
A12G G66U,0.000245 ± 7.9e-05,–,–,3.43e-05 ± 7.2e-06,9.94e-05 ± 9.7e-06,–,–
A12G A33G U57A G59U,< 1e-05,–,< 1e-05,< 1e-05,–,–,–
A12U A52C C67A,2.65e-05 ± 5e-06,–,–,–,–,–,–
A12G U47A,0.00138 ± 0.00029,5500 ± 1600,0.000152 ± 1.9e-05,0.000455 ± 7.1e-05,0.000864 ± 0.00013,–,–
A12G U47C,0.000813 ± 9.1e-05,3820 ± 720,0.000111 ± 1.5e-05,0.000412 ± 8.3e-05,0.000577 ± 6.1e-05,3.52e-05 ± 1.3e-05,–
A12C U31G,0.00416 ± 0.00048,2340 ± 410,0.00081 ± 0.00015,0.00237 ± 0.00075,0.00339 ± 0.00051,0.000245 ± 7.1e-05,8.48e-05 ± 1.8e-05
A12G G32U,0.00313 ± 0.00012,–,0.000164 ± 1.8e-05,0.00055 ± 5.4e-05,0.00144 ± 0.00014,4.1e-05 ± 8.1e-06,–
